Here are results for 5 molecules from publication PMC6050966, “Structure-Function Analysis of the Curli Accessory Protein CsgE Defines Surfaces Essential for Coordinating Amyloid Fiber Formation” (mBio, 2018).

Data set [1] deals with 6x-His-tagged CsgA lacking the 20-residue N-terminal signal sequence (E. coli) (UniProt P28307).
The target in data set [2] is CsgE F79A (E. coli MC4100). Briefly: native gel or EMSA; native PAGE of purified CsgE (monomer peak) incubated at 4°C or 25°C for various times. Background: In EMSA bound probe runs differently from free probe, usually more slowly.
In data set [3] the target is CsgE W48A (E. coli MC4100). The data set is described as above.
Data set [4] concerns the target P0AE95. As to the kind of experiment: SEC-MALS; Superdex 200 Increase 10/300 GL, 0.3 ml/min; protein at 2 mg/ml in 50 mM KHPO4 pH 7.3 with and without 150 mM NaCl. In general terms: Size exclusion chromatography separates by hydrodynamic size, large species first.
Data set [5] deals with T1, 6x-His-tagged CsgA lacking the 20-residue N-terminal signal sequence (E. coli, UniProt P28307 21-151).
T1 construct: Freshly purified, unfolded monomer; also called unlabeled CsgA; monomeric CsgA
Briefly: NMR titration; 1H-15N HSQC chemical shift perturbation at one ratio: 15N-labeled WT CsgE (80 µM, 0.4 M arginine) with or without unlabeled CsgA (80 µM). The settings on record: both partners purified.

For data set [6], the target named is P0AE95. As to the kind of experiment: SEC; Superdex 200 10/300, 50 mM potassium phosphate, 150 mM NaCl, pH 7.4; purified CsgE (20 µM) incubated at 25°C for 5 h to 28 h; monomer to nonamer.
In data set [7] the target is P0AE95. Briefly: SEC; Superdex 200 10/300, 50 mM potassium phosphate, 150 mM NaCl, pH 7.4; purified CsgE (20 µM) incubated at 37°C; monomer to nonamer and larger oligomers.
In data set [8] the target is T2, WT CsgE (6x-His-tagged, E. coli MC4100) (E. coli MC4100), P0AE95.
T2 chain: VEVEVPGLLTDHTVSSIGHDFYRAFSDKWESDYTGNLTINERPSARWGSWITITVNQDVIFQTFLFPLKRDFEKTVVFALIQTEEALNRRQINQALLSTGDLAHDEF
As to the kind of experiment: native gel or EMSA; native PAGE of purified CsgE (monomer peak) incubated at 4°C or 25°C for various times. To be noted: remark: other sources report otherwise.

In data set [9] the target is T2, WT CsgE (6x-His-tagged, E. coli MC4100) …. As to the kind of experiment: SEC-MALS; Superdex 200 Increase 10/300 GL, 0.3 ml/min; protein at 2 mg/ml in 50 mM KHPO4 pH 7.3 with and without 150 mM NaCl. The settings on record: remark: other sources report otherwise.
Data set [10] has the same target. Briefly: SEC; Superdex 200 10/300, 50 mM potassium phosphate, 150 mM NaCl, pH 7.4; purified CsgE (20 µM) incubated at 25°C for 5 h to 28 h; monomer to nonamer. To be noted: remark: other sources report otherwise.
Data set [11] shares this target. Briefly: SEC; Superdex 200 10/300, 50 mM potassium phosphate, 150 mM NaCl, pH 7.4; purified CsgE (20 µM) incubated at 37°C; monomer to nonamer and larger oligomers. To be noted: remark: other sources report otherwise.
Data set [12] has the same target. Briefly: SEC; Superdex 200 10/300, 50 mM potassium phosphate, 150 mM NaCl, pH 7.4; purified CsgE (20 µM) immediately after purification and kept at 4°C for up to 20 days; monomer to nonamer. To be noted: remark: other sources report otherwise.

T1 sequence (P28307 21-151): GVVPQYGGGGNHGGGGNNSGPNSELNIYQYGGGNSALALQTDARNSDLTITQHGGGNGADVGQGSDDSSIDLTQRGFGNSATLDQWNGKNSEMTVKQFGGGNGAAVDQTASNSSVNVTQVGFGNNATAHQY
Chain of 6x-His-tagged CsgA lacking the 20-residue N-terminal signal sequence (E. coli) (P28307 21-151): as above

CsgE R47A (natural protein): the Thioflavin T fluorescence of CsgA polymerization (25°C, 48 h): T50 of CsgA with CsgE R47A relative to WT CsgE (% decrease of T50 relative to WT CsgE) in data set [1] is > 50.
In the case of CsgE F79A (natural protein), the stoichiometry N (as a rule, the number of molecules, sites or subunits per partner or assembly) in data set [2] worked out at 9.
With CsgE W48A (natural protein), the stoichiometry N in data set [3] was 9.

B1: WT CsgE (6x-His-tagged, E. coli MC4100) (natural protein, UniProt P0AE95 23-129, looked up)
chain: T2 chain
notes: CsgE, periplasmic curli accessory protein of E. coli MC4100; add 21 for the precursor numbering of P0AE95; 15N-labeled (M9 minimal medium with [15N]ammonium sulfate) for NMR; Monomer peak of the S-100 column was used for SEC and native PAGE; also called wild-type CsgE; recombinant WT CsgE
Regarding B1, the “high-molecular-weight aggregate, percent of the loaded mass” value with P0AE95 [4] is “a large, high-molecular-weight aggregate representing 32% of the loaded mass”. Also, the binding result in data set [5] is “binds”. In the data set with P0AE95 [6], the “nonamer peak area as percent of monomer peak area, after 5 h at 25°C” value is on record as “the nonamer peak area was approximately 20% of the monomer peak area” and the “nonamer peak area as percent of monomer peak area, after 28 h at 25°C” value was “the nonamer peak area was approximately 40% of the monomer peak area”. Besides, the “loss of monomer peak area within 1 h at 37°C” value in the data set with P0AE95 [7] is “the monomeric peak loses >65% of its area within 1 h of incubation”.

B2: WT CsgE (6x-His-tagged, E. coli MC4100), P0AE95 23-129 (natural protein)
chain: T2 chain
For B2, the stoichiometry N in data set [8], in [10], in data set [11] and in data set [12] was 9 in each case. In data set [9], the small oligomer, percent of the mass was 2%. The monomer, percent of peak area in data set [12] was > 90%.
